Laboratory results: PMC3406032, “Tristetraprolin Inhibits Poly(A)-Tail Synthesis in Nuclear mRNA that Contains AU-Rich Elements by Interacting with Poly(A)-Binding Protein Nuclear 1” (PLoS ONE, 2012)
Positions count from the first letter of the chain named. In names and notes the source's numbering stands.

Experiments:
[1] = molecular target: T1, MBP-PABPN1-HA-(His)6 (mouse); test: pull-down; MBP-PABPN1 immobilised on amylose resin and incubated with (His)6-PAP-myc and GST-TTP together; blots with anti-GST and anti-myc quantitated; oligo(A)12 added to some samples
T1 sequence (Q8CCS6 whole entry, looked up): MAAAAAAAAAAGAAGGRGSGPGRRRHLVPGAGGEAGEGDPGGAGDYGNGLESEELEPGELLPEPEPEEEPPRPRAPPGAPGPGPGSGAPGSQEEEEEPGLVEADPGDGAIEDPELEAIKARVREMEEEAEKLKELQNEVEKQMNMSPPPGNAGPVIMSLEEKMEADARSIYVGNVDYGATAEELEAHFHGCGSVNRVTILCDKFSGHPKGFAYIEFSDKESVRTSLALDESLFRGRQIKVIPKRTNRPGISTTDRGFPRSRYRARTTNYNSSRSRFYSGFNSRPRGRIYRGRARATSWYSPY

[2] = molecular target: T2, hexahistidine-PAP-myc (UniProt Q61183-1 1-739); test: co-IP; 0.5 µg bacterially expressed GST-TTP construct and 0.5 µg (His)6-PAP-myc with anti-myc agarose in 10 mM Tris pH 7.0, 0.15 M NaCl, 1 mM MgCl2, 0.7 mM ZnCl2, 0.1% NP-40, 4°C overnight; blots with anti-myc and anti-GST; conditions: both partners purified
T2 construct: poly(A) polymerase (PAP), NM_011112, in a pQE expression vector; also called (His)6-PAP-myc; poly(A) polymerase; source: bacterially expressed (E. coli STBL2 or Rosetta(DE3)pLacI), purified; not shown: His6, N-terminal, kept; myc, C-terminal, kept

[3] = molecular target: (His)6-PABPN1 (mouse) (UniProt O35445)

T2 sequence (Q61183 whole entry): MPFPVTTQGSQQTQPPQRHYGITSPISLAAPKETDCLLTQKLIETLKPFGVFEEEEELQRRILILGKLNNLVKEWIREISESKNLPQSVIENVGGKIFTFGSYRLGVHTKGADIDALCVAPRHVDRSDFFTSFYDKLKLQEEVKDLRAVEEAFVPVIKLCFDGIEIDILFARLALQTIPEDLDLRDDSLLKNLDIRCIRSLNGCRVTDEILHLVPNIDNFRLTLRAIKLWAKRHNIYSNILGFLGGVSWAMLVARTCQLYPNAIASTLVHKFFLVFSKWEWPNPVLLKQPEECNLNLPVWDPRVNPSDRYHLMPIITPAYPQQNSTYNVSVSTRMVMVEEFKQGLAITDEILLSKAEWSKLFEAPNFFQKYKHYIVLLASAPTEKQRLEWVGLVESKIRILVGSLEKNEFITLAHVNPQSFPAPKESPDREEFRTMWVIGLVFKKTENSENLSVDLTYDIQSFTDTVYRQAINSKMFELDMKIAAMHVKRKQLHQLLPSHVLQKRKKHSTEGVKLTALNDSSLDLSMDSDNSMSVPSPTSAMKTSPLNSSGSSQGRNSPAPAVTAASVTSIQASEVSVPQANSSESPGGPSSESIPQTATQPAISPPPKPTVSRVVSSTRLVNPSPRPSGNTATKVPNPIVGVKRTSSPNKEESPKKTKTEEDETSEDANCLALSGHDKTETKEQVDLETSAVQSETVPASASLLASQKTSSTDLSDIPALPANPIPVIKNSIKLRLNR

hexahistidine-PAP-myc (from UniProt Q61183-1 1-739) (enzyme)
fold change of PAP pulled down with GST-TTP present, against PAP alone [1]: 4 fold

B1: GST-TTP@2-186 (domain or fragment, mouse, UniProt P22893 2-186, looked up)
chain: DLSAIYESLQSMSHDLSSDHGGTESLGGLWNINSDSIPSGVTSRLTGRSTSLVEGRSCGWVPPPPGFAPLAPRPGPELSPSPTSPTATPTTSSRYKTELCRTYSESGRCRYGAKCQFAHGLGELRQANRHPKYKTELCHKFYLQGRCPYGSRCHFIHNPTEDLALPGQPHVLRQSISFSGLPSGR
notes: source: E. coli STBL2 or Rosetta(DE3)pLacI, purified (glutathione-agarose); not shown: GST, N-terminal, kept
binding result [2]: binds

B2: GST-TTP@95-158 (domain or fragment, mouse, UniProt P22893 95-158, looked up)
chain: RYKTELCRTYSESGRCRYGAKCQFAHGLGELRQANRHPKYKTELCHKFYLQGRCPYGSRCHFIH
notes: also called TZF construct; TZF domain; source: E. coli STBL2 or Rosetta(DE3)pLacI, purified (glutathione-agarose); not shown: GST, N-terminal, kept
binding result [2]: binds

B3: GST-TTP@95-158(F118N) (domain or fragment, mouse, UniProt P22893 95-158, looked up)
chain: B2 chain with F24N
notes: as for B1
binding result [2]: binds

B4: N-terminally glutathione S-transferase-tagged wild-type TTP (natural protein, mouse, UniProt P22893 2-319, looked up)
chain: DLSAIYESLQSMSHDLSSDHGGTESLGGLWNINSDSIPSGVTSRLTGRSTSLVEGRSCGWVPPPPGFAPLAPRPGPELSPSPTSPTATPTTSSRYKTELCRTYSESGRCRYGAKCQFAHGLGELRQANRHPKYKTELCHKFYLQGRCPYGSRCHFIHNPTEDLALPGQPHVLRQSISFSGLPSGRRSSPPPPGFSGPSLSSCSFSPSSSPPPPGDLPLSPSAFSAAPGTPVTRRDPNQACCPSCRRSTTPSTIWGPLGGLARSPSAHSLGSDPDDYASSGSSLGGSDSPVFEAGVFGPPQTPAPPRRLPIFNRISVSE
notes: also called WT GST-TTP; GST-TTP; source: E. coli STBL2 or Rosetta(DE3)pLacI, purified (glutathione-agarose); not shown: GST, N-terminal, kept
binding result [2]: binds
in vitro polyadenylation of TNFα-ARE A20 RNA by (His)6-PAP-myc with (His)6-PABPN1: reduction of the processive addition of adenosines by GST-TTP at 2 and 5 min [3]: 45%
amount of TTP pulled down with (His)6-PAP-myc present, against TTP alone [1]: 80%

B5: GST-TTP@2-319(F118N) (natural protein, mouse, UniProt P22893 2-319, looked up)
chain: B4 chain with F117N
notes: as for B1
binding result [2]: binds

B6: GST-TTPΔ95–158 (natural protein, mouse, UniProt P22893 2-319, looked up)
chain: DLSAIYESLQSMSHDLSSDHGGTESLGGLWNINSDSIPSGVTSRLTGRSTSLVEGRSCGWVPPPPGFAPLAPRPGPELSPSPTSPTATPTTSSNPTEDLALPGQPHVLRQSISFSGLPSGRRSSPPPPGFSGPSLSSCSFSPSSSPPPPGDLPLSPSAFSAAPGTPVTRRDPNQACCPSCRRSTTPSTIWGPLGGLARSPSAHSLGSDPDDYASSGSSLGGSDSPVFEAGVFGPPQTPAPPRRLPIFNRISVSE
notes: also called TZF domain-deleted TTP mutant; source: E. coli STBL2 or Rosetta(DE3)pLacI, purified (glutathione-agarose); not shown: GST, N-terminal, kept
binding result [2]: binds
